Test results published in patent US6767720 (VLAAMS INTERUNIVERSITAIR INSTITUUT VOOR BIOTECHNOLOGIE VZW, dated 2004).
Each block holds one binder with its values, some of them ahead of it.

Legend:
[1] = molecular target: T1, ANC-2H01 initial two-hybrid clone (part of ANC-2H01 fused to the GAL4-AD, plasmid pGAD10ANC2H01) (human, UniProt Q9UID6 27-485); experiment: yeast two-hybrid (FIG. 4)
T1 construct: 27-485 is derived from 459 of 485 residues; also called ANC-2H01 clone; initial ANC-2H01 two-hybrid clone
T1 sequence: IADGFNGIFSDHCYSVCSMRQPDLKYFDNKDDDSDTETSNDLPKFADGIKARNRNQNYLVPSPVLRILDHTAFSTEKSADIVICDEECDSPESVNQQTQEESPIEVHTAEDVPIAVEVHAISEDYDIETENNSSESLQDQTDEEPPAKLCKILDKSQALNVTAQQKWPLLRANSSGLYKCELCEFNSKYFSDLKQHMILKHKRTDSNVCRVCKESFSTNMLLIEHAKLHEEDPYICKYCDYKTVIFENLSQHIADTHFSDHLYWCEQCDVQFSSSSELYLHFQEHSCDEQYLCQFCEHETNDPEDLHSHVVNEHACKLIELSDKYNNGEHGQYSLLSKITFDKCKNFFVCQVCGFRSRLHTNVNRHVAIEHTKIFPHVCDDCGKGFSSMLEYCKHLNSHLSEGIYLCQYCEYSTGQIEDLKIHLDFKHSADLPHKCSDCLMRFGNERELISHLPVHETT

[2] = molecular target: T2, human αE-catenin (full-length; expressed from pJ6αECTN in HEK293T cells, also endogenous in HEK293T) (human, UniProt P35221 1-906); experiment: co-immunoprecipitation from cotransfected HEK293T cells, Western blot
T2 construct: also called PJ6αECTN(37-3433); pJ6αE-catenin
T2 sequence (looked up): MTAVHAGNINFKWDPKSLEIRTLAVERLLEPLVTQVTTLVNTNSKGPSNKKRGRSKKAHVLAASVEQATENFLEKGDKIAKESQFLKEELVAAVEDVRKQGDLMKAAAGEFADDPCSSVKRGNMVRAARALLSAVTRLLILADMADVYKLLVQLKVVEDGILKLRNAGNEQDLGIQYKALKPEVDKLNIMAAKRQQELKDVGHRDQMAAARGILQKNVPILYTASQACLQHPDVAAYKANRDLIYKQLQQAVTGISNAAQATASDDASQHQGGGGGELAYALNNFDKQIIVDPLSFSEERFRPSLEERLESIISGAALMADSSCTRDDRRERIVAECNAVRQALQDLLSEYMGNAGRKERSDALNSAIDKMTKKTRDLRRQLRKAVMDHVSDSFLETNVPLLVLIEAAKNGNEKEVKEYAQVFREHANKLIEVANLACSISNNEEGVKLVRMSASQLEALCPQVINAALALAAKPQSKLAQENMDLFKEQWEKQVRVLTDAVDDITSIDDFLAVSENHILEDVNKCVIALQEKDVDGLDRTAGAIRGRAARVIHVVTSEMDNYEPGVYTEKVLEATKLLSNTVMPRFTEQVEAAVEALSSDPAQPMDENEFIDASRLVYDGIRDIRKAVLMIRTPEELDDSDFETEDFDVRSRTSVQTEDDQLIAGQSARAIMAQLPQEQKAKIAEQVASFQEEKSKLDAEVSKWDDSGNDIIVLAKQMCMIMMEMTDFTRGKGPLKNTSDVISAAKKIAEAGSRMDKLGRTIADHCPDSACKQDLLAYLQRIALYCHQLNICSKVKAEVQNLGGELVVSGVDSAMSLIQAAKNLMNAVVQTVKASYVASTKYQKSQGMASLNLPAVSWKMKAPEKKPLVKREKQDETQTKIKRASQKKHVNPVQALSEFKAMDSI

[3] = molecular target: T3, human αE-catenin fused to the GAL4-DBD (plasmid pGBT9αECTN) (human, UniProt P04386 1-147; P35221 1-906, limits assumed); experiment: yeast two-hybrid, strain Y190, HIS3 and LacZ reporters (FIG. 11)
T3 construct: also called full-length αE-catenin

[4] = molecular target: T1, ANC-2H01 initial two-hybrid clone (part …); experiment: yeast two-hybrid, strain HF7c, HIS3 and LacZ reporters

- binding result [1]: no binding
B1: αN-catenin residues 4-193 fused to the GAL4-DBD (plasmid pGBT9ANCTN(EcoRI-BamHI)) (other, UniProt P04386 1-147, looked up)
chain: MKLLSSIEQACDICRLKKLKCSKEKPKCAKCLKNNWECRYSPKTKRSPLTRAHLTEVESRLERLEQLFLLIFPREDLDMILKMDSLQDIKALLTGLFVQDNVNKDAVTDRLASVETDMPLTLRQHRISATSSSEESSNKGQRQLTVSATSPIILKWDPKSLEIRTLTVERLLEPLVTQVTTLVNTSNKGPSGKKKGRSKKAHVLAASVEQATQNFLEKGEQIAKESQDLKEELVAAVEDVRKQGETMRIASSEFADDPCSSVKRGTMVRAARALLSAVTRLLILADMADVMRLLSHLKIVEEALEAVKNATNEQDLANRFKEFGKEMVKLNYVAARR

- binding result [2]: no binding
B2: E-tagged full-length ANC-2H01 protein (expression plasmid pEFBOSANC-2H01E), expressed in HEK293T cells (other)
chain: MNEYPKKRKRKTLHPSRYSDSSGISRIADGFNGIFSDHCYSVCSMRQPDLKYFDNKDDDSDTETSNDLPKFADGIKARNRNQNYLVPSPVLRILDHTAFSTEKSADIVICDEECDSPESVNQQTQEESPIEVHTAEDVPIAVEVHAISEDYDIETENNSSESLQDQTDEEPPAKLCKILDKSQALNVTAQQKWPLLRANSSGLYKCELCEFNSKYFSDLKQHMILKHKRTDSNVCRVCKESFSTNMLLIEHAKLHEEDPYICKYCDYKTVIFENLSQHIADTHFSDHLYWCEQCDVQFSSSSELYLHFQEHSCDEQYLCQFCEHETNDPEDLHSHVVNEHACKLIELSDKYNNGEHGQYSLLSKITFDKCKNFFVCQVCGFRSRLHTNVNRHVAIEHTKIFPHVCDDCGKGFSSMLEYCKHLNSHLSEGIYLCQYCEYSTGQIEDLKIHLDFKHSADLPHKCSDCLMRFGNERELISHLPVHETT
notes: also called pEFBOS-EANC-2H01; E-tagged ANC-2H01; not shown: E-tag derived from plasmid pCANTAB5E (Pharmacia), at the amino-terminal side

- binding result [3]: no binding
B3: about full-length ANC-2H01 fused to the GAL4-AD (plasmid pGAD424ANC-2H01-FL) (other, not shown: large carriers)
chain: MNEYPKKRKRKTLHPSRYSDSSGISRIADGFNGIFSDHCYSVCSMRQPDLKYFDNKDDDSDTETSNDLPKFADGIKARNRNQNYLVPSPVLRILDHTAFSTEKSADIVICDEECDSPESVNQQTQEESPIEVHTAEDVPIAVEVHAISEDYDIETENNSSESLQDQTDEEPPAKLCKILDKSQALNVTAQQKWPLLRANSSGLYKCELCEFNSKYFSDLKQHMILKHKRTDSNVCRVCKESFSTNMLLIEHAKLHEEDPYICKYCDYKTVIFENLSQHIADTHFSDHLYWCEQCDVQFSSSSELYLHFQEHSCDEQYLCQFCEHETNDPEDLHSHVVNEHACKLIELSDKYNNGEHGQYSLLSKITFDKCKNFFVCQVCGFRSRLHTNVNRHVAIEHTKIFPHVCDDCGKGFSSMLEYCKHLNSHLSEGIYLCQYCEYSTGQIEDLKIHLDFKHSADLPHKCSDCLMRFGNERELISHLPVHETT

- binding result [4]: no binding
B4: lamin C fused to the GAL4 DNA binding domain (plasmid pLAM5′) (other, UniProt P04386 1-147, looked up)
chain: MKLLSSIEQACDICRLKKLKCSKEKPKCAKCLKNNWECRYSPKTKRSPLTRAHLTEVESRLERLEQLFLLIFPREDLDMILKMDSLQDIKALLTGLFVQDNVNKDAVTDRLASVETDMPLTLRQHRISATSSSEESSNKGQRQLTVSSEEVVSREVSGIKAAYEAELGDARKTLDSVAKERARLQLELSKVREEFKELKARNTKKEGDLIAAQARLKDLEALLNSKEAALSTALSEKRTLEGELHDLRGQVAKLEAALGEAKKQLQDEMLRRVDAENRLQTMKEELDFQKNIYSEELRETKRRHETRLVEID
notes: Irrelevant control protein

- binding result [1]: no binding
B5: αN-catenin residues 535-787 fused to the GAL4-DBD (plasmid pGBT9ANCTN(PstI 1618-2375)) (other, UniProt P04386 1-147, looked up)
chain: MKLLSSIEQACDICRLKKLKCSKEKPKCAKCLKNNWECRYSPKTKRSPLTRAHLTEVESRLERLEQLFLLIFPREDLDMILKMDSLQDIKALLTGLFVQDNVNKDAVTDRLASVETDMPLTLRQHRISATSSSEESSNKGQRQLTVSTLDRTAGAIRGRAARVIHIINAEMENYEAGVYTEKVLEATKLLSETVMPRFAEQVEVAIEALSANVPQPFEENEFIDASRLVYDGVRDIRKAVLMIRTPEELEDDSDFEQEDYDVRSRTSVQTEDDQLIAGQSARAIMAQLPQEEKAKIAEQVEIFHQEKSKLDAEVAKWDDSGNDIIVLAKQMCMIMMEMTDFTRGKGPLKNTSDVINAAKKIAEAGSRMDKLARAVADQCPDSACKQDLLAYLQRIALYCH
